# Experiments:
# purified protein [1] = substrate: O=C(CCc1ccc(O)cc1)c1c(O)cc(O)cc1O; assay: purified protein; conditions: UDP-Glc as sugar donor; C-glucosylation
# purified protein [2] = substrate: O=C1CC(O)(c2ccc(O)cc2)Oc2cc(O)cc(O)c21; assay: purified protein; conditions: UDP-Glc as sugar donor; C-glucosylation
protein,measurement,setting,value
UGT708S6 (Dendrobium catenatum) (protein) MSSGDTNLPRVLLLPSSGMGHLVPFVRLASALSERCISVSLLAVRPTISAAESLLLSSLPSSLLLDFPIKPLDPSLFPPSSDPFFLQMEALRRSADLLPSFISTCSPPVSSLIIDISIASSFLPVAAAAKIPCFVLFTSSASMLALCSVFAFLSTPTAGADVNIAGGVLKIPTSSLPPPLRDPNHLFTTQFVENGRALAQANGILVNTFSALEPEVLVALNSGAVLPGLPPVIAIGPLPPVKKQPSLPSPALRWLDEQQEKSVMYVSFGSRTAMSKEQIRALGAGLENSGCRFFWVVKSAKVDREEVMEIEELLGEEYAKRVEERGLVVKEWVEQEVVLSHRAVAGFMSHCGWNSVTEAAAAGVRILAWPRMGDQRVNAAVVARSGLGIWPEKWAWEAEERVVAAEEIAVKVREMMRDERLAETAAQVQAEATAAVQEGGSLDQSCGYLLKKL,Km,purified protein [1],545.831 µM
same,Vmax,purified protein [1],9.48 µM/min
same,kcat,purified protein [1],0.563 s⁻¹
same,kcat/Km,purified protein [1],1030 M⁻¹ s⁻¹
same,Km,purified protein [2],276.900 µM
same,Vmax,purified protein [2],7.68 µM/min
same,kcat,purified protein [2],0.907 s⁻¹
same,kcat/Km,purified protein [2],3280 M⁻¹ s⁻¹

# Source: article PMC11577821
